{"source": "patent US8034904B2", "about": "“Anti-IGF-I receptor antibody” (Immunogen Inc., priority 2002, dated 2011)", "key": {"[1]": {"biological_target": "T1, human insulin receptor (Homo sapiens, UniProt P06213)", "T1 construct": "expressed in transfected cells; host or cells: 3T3-like cells of IGF-I receptor deficient mice", "test": "FACS binding to cells overexpressing human insulin receptor", "conditions": "EM164 50-100 nM", "method": "Incubation of EM164 antibody (50-100 nM) in 100 μL cold FACS buffer (1 mg/mL BSA in Dulbecco's MEM medium) was performed using cells overexpressing IGF-I receptor and using cells overexpressing insulin receptor (2×10^5 cells/mL) in a round-bottom 96-well plate for 1 h. The cells were pelleted by centrifugation and washed with cold FACS buffer by gentle flicking, followed by incubation with goat-anti-mouse-IgG-antibody-FITC conjugate (100 μL; 10 μg/mL in FACS buffer) on ice for 1 h. The cells were pelleted, washed, and resuspended in 120 μL of 1% formaldehyde solution in PBS. The plate was analyzed using a FACSCalibur reader (BD Biosciences)."}, "[2]": {"system": "Human pancreatic cancer BxPC-3 xenografts", "test": "BxPC-3 pancreatic cancer xenograft in SCID/ICR mice", "assay_type": "in vivo, mouse", "method": "Human pancreatic cancer xenografts were established in 5 week-old, female SCID/ICR mice (Taconic) by subcutaneous injections of 10^7 BxPC-3 cells in PBS (day 0). The mice bearing established tumors of 80 mm^3 were then treated with EM164 alone (13 injections of 0.8 mg/mouse, i.v., lateral tail vein, on days 12, 16, 19, 23, 26, 29, 36, 43, 50, 54, 58, 61 and 64), with gemcitabine alone (two injections of 150 mg/kg/mouse, i.p., on days 12 and 19), with a combination of gemcitabine and. EM164 following the above schedules, PBS alone, and a control antibody alone (following the same schedule as EM164) using five mice in each of the five treatment groups."}}, "data": [{"molecule": "EM164: murine anti-IGF-I receptor monoclonal antibody, IgG1 with kappa light chain, hybridoma ATCC PTA-4457; heavy SEQ ID NO:7, light SEQ ID NO:8 (antibody, antibody heavy chain; antibody light chain) heavy: QVQLQQSGAELVKPGASVKLSCKASGYTFTSYWMHWVKQRPGQGLEWIGEINPSNGRTNYNEKFKRKATLTVDKSSSTAYMQLSSLTSEDSAVYYFARGRPDYYGSSKWYFDVWGAGTTVTVSS light: DVLMTQTPLSLPVSLGDQASISCRSSQSIVHSNVNTYLEWYLQKPGQSPKLLIYKVSNRFSGVPDRFSGSGSGTDFTLRISRVEAEDLGIYYCFQGSHVPPTFGGGTKLEIKR", "values": [{"measurement": "fluorescence shift (FACS)", "setting": "[1]", "value": "insignificant shift"}, {"measurement": "day on which measurable tumor regrowth was seen in more than one animal", "setting": "[2]; BxPC-3 xenografts", "value": 43, "unit": "days"}, {"measurement": "total regression of tumor xenografts (animals)", "setting": "[2]; EM164 0.8 mg/mouse i.v. x13, gemcitabine 150 mg/kg i.p. days 12 and 19, five mice per group", "value": "4 of 5"}, {"measurement": "mean tumor volumes on day 74 in comparison with the control treatments", "setting": "[2]; P=0.029 (EM164) and 0.002 (combination), two-tailed T-test", "value": "significantly smaller"}, {"measurement": "growth of established BxPC-3 xenografts", "setting": "[2]; another study, intraperitoneal injections", "value": "inhibited the growth"}, {"measurement": "inhibition of the growth of established BxPC-3 xenografts, intraperitoneal vs intravenous administration", "setting": "[2]; mouse, in vivo", "value": "equivalent inhibition"}, {"measurement": "inhibition of the growth of established BxPC-3 xenografts, murine vs humanized", "setting": "[2]; mouse, in vivo", "value": "equivalent inhibition"}]}]}
